± gives the uncertainty stated by the source.
B1: Homeobox protein cut-like 1, residues 941 to 1008; numbered along this chain, P39880 (parent)
chain: QEVDTIELTRQVKEKLAKNGICQRIFGEKVLGLSQGSVSDMLSRPKPWSKLTQKGREPFIRMQLWLNG

Variants of: B1
Test: abundance fitness (aPCA) (normalised: wild type 0, dead -1); higher = more abundant; growth selection in yeast, the domain comes from the species named
Settings: Homo sapiens

Variant | abundance fitness
QEVDTIELTRQVKEKLAKNGICQRIPGEKVLGLSQGSVSDMLSRPKPWSKLTQKGREPFIRMQLWLNG | -0.574 ± 0.085
QEVDTIELTRQVKEKLAKNGICQRIFGEKVLGLSQGYVSDMLSRPKPWSKLTQKGREPFIRMQLWLNG | -0.173 ± 0.08
QEVDTIELTRQVKEKLAKNGICQRIFGEKVLGLSQGSVSDMLQRPKPWSKLTQKGREPFIRMQLWLNG | 0.029 ± 0.071
QEVDTIELTRQVKEKLAKNGICQRIFGEKVLGPSQGSVSDMLSRPKPWSKLTQKGREPFIRMQLWLNG | -0.49 ± 0.082
QEVDTIELTRQVKEKLAKNGICQRIFGEKVLGLSQGSVSDMLSRPKPWSKLTQKGREPFIRMQLWING | -0.166 ± 0.083
QEVDTIELTRQVKEKLAKNGICQRIFGEKVLGLSQGSVSDMLSAPKPWSKLTQKGREPFIRMQLWLNG | 0 ± 0.058
QEVDTDELTRQVKEKLAKNGICQRIFGEKVLGLSQGSVSDMLSRPKPWSKLTQKGREPFIRMQLWLNG | -0.268 ± 0.13
QEVDTIELTRQVKEKLAKNGICQRIFGEKVLGLSQGSVSDMLSRPKYWSKLTQKGREPFIRMQLWLNG | -0.25 ± 0.11
QEVDTIELTRQVKEKLAKNGICQRIFGEKVLGLSQGSVSDMLSRPKPWSKLTQWGREPFIRMQLWLNG | -0.327 ± 0.077
QEVDTIELTRQVKEKLAKNGICQRIFGEKVLGLSQGSVSDMLSRPKPWSWLTQKGREPFIRMQLWLNG | -0.247 ± 0.068
QEVDTIELTRQVKEKLAKNGICQRIFGEKVLGLSQGSVSDMLSRPKPWSLLTQKGREPFIRMQLWLNG | -0.104 ± 0.049
QEVDTIELTRQVKEKLAKNGICQRIFGEKVLGLSQGSVNDMLSRPKPWSKLTQKGREPFIRMQLWLNG | 0.029 ± 0.088
QEVDTIELTRQVKEKLAKNGICQRIFGEKVLGLSQGSVFDMLSRPKPWSKLTQKGREPFIRMQLWLNG | -0.156 ± 0.095
QEVDTIELTRQVKEKLAKNGICQRFFGEKVLGLSQGSVSDMLSRPKPWSKLTQKGREPFIRMQLWLNG | 0.07 ± 0.089
QEVDTIELTRQVKEKLAKNGICQRPFGEKVLGLSQGSVSDMLSRPKPWSKLTQKGREPFIRMQLWLNG | -0.578 ± 0.092
QEVDTIELTRQVKEKLAKNGICQRIFGEKVLGLSQGSVSAMLSRPKPWSKLTQKGREPFIRMQLWLNG | -0.158 ± 0.055
QEVDTIELTRQVKEKLAKNGICQRIFGEKVLGLSQGSVSIMLSRPKPWSKLTQKGREPFIRMQLWLNG | -0.349 ± 0.096
QEVDTIELTRQVKEKLAKNGICQRIFGEKVLGLSQGSVSDMLSRPKPWSKLTQKGEEPFIRMQLWLNG | -1.2 ± 0.17
QEVDTIELTRQVKEKLAKNGICQRIFGEKVLGLSQGSVSDMLSRPKPWSKLTQKGAEPFIRMQLWLNG | -0.479 ± 0.086
QEVDTIELTRQVKEKLWKNGICQRIFGEKVLGLSQGSVSDMLSRPKPWSKLTQKGREPFIRMQLWLNG | -0.269 ± 0.059
QEVDTIELTRQVKEKLAKNEICQRIFGEKVLGLSQGSVSDMLSRPKPWSKLTQKGREPFIRMQLWLNG | -0.331 ± 0.083
QEVDTIELTRQVKEKLAKNGICQRIFGEKVLGLSQGSVSDMLSRPKPLSKLTQKGREPFIRMQLWLNG | -0.398 ± 0.047
QEVPTIELTRQVKEKLAKNGICQRIFGEKVLGLSQGSVSDMLSRPKPWSKLTQKGREPFIRMQLWLNG | -0.265 ± 0.062
QEVMTIELTRQVKEKLAKNGICQRIFGEKVLGLSQGSVSDMLSRPKPWSKLTQKGREPFIRMQLWLNG | -0.153 ± 0.056
QEVDTIELTRQVKEKLAKNGICQRIFGEKVLGLSQGSVSDVLSRPKPWSKLTQKGREPFIRMQLWLNG | -0.007 ± 0.045
QEVDTIELTRQVKEKLAKNGICQRIFGEKVLGLSQGSVSDALSRPKPWSKLTQKGREPFIRMQLWLNG | 0.023 ± 0.053
QEVDTIELTRQVKEKLAKNGICQRIFGEKVLGLSQGSVSDMLSRPKPWSKLTQKFREPFIRMQLWLNG | 0.042 ± 0.096

Variant | abundance fitness
QEVDTIELARQVKEKLAKNGICQRIFGEKVLGLSQGSVSDMLSRPKPWSKLTQKGREPFIRMQLWLNG | 0.026 ± 0.063
QEVDTIELIRQVKEKLAKNGICQRIFGEKVLGLSQGSVSDMLSRPKPWSKLTQKGREPFIRMQLWLNG | -0.113 ± 0.086
QEVDTIELRRQVKEKLAKNGICQRIFGEKVLGLSQGSVSDMLSRPKPWSKLTQKGREPFIRMQLWLNG | -0.212 ± 0.049
QEVDTIELYRQVKEKLAKNGICQRIFGEKVLGLSQGSVSDMLSRPKPWSKLTQKGREPFIRMQLWLNG | -0.577 ± 0.13
QEVDTIELTRQVKEKLAKNGICQRIFGEKVRGLSQGSVSDMLSRPKPWSKLTQKGREPFIRMQLWLNG | -0.15 ± 0.052
QEVDTIELTRQVKEKLAKNGICQRIFGEKVLGLSYGSVSDMLSRPKPWSKLTQKGREPFIRMQLWLNG | 0.015 ± 0.14
QEVDTIELTRQVKEKLAKNGICQRIFGEKVLGLSQGSVSDMLSRPTPWSKLTQKGREPFIRMQLWLNG | -0.205 ± 0.074
QEVDTIELTRQVKEKLAKNGICQRIFGEKVLGLSQGSVSDMLSRPPPWSKLTQKGREPFIRMQLWLNG | 0.112 ± 0.071
QEVDTIELTRQVKEGLAKNGICQRIFGEKVLGLSQGSVSDMLSRPKPWSKLTQKGREPFIRMQLWLNG | -0.366 ± 0.077
QEVDTIELTRQVKEKLAKNGICQRIFGEKVLGLSQGSVSDMLSRPKPWSKLTQKGREPFIRMSLWLNG | -0.219 ± 0.055
QEVDTIELTRQVKEKLAKNGICQRIFGEKVLGLSQGSVSDMLSRPKPWSKLTQKGREPFIRMDLWLNG | -0.389 ± 0.091
QEVDTIELTRQEKEKLAKNGICQRIFGEKVLGLSQGSVSDMLSRPKPWSKLTQKGREPFIRMQLWLNG | -0.113 ± 0.069
QEVDTIELTRQAKEKLAKNGICQRIFGEKVLGLSQGSVSDMLSRPKPWSKLTQKGREPFIRMQLWLNG | -0.171 ± 0.055
QEVDTIELTRQWKEKLAKNGICQRIFGEKVLGLSQGSVSDMLSRPKPWSKLTQKGREPFIRMQLWLNG | -0.226 ± 0.072
QEVDTIELTRQVKEKLAKNGICQRIFGEKVLGLSQFSVSDMLSRPKPWSKLTQKGREPFIRMQLWLNG | -0.026 ± 0.076
QEVDTIELTRQVKEKLAKNGICQRIFGEKVLGLSQGSVSDMLSRPKPWAKLTQKGREPFIRMQLWLNG | -0.072 ± 0.074
QEVDTIELTRQVKEKLAKNGICQRIFGEKVLGLSQGSVSDMLSRPKPWKKLTQKGREPFIRMQLWLNG | 0.029 ± 0.074
QEVDTIELTRQVKEKPAKNGICQRIFGEKVLGLSQGSVSDMLSRPKPWSKLTQKGREPFIRMQLWLNG | 0.004 ± 0.068
QEVDTIELTRQVKEKLARNGICQRIFGEKVLGLSQGSVSDMLSRPKPWSKLTQKGREPFIRMQLWLNG | -0.139 ± 0.048
QEVDTIELTRQVKEKLAKNGICQRIFGEKVLGLSQGSKSDMLSRPKPWSKLTQKGREPFIRMQLWLNG | -0.161 ± 0.083
QEVDTIELTRQVKEKLAKNGICQRIFGEKVLGLSQGSPSDMLSRPKPWSKLTQKGREPFIRMQLWLNG | -0.364 ± 0.08
QEVDTIELTRQVKEKLAKNGICQRIFGEKVLGLSQGSFSDMLSRPKPWSKLTQKGREPFIRMQLWLNG | 0.048 ± 0.13
QEVDTIELTRQVKEKLAKNGICQRIFGRKVLGLSQGSVSDMLSRPKPWSKLTQKGREPFIRMQLWLNG | -0.026 ± 0.053
QEVDTIELTRQVKEKLAKNGICQRIFGEKVLGLSQGSVSDMLSRPKPWSKLTQKGREPFIRMQLWLPG | -0.758 ± 0.12
QEVDTIELTRQVKEKLAKNGICQRIFGEKVLGLSQGSVSDMLSRPKPWSKLTQKGREPFIRMQLWLEG | 0.072 ± 0.12
QEVDTIELTRQVKEKLAKNGICQRIFGEKVLGLSQGSVSDMLSRPKPWSKLTQKGREPFIRMQLWLMG | -0.186 ± 0.12
QEVDTIELTRQVKEKLAKNGICQRIFGEKVLGLSQGSVSDMLSRPKPWSKLTQKGREPFITMQLWLNG | -0.131 ± 0.068

Variant | abundance fitness
QEVDTIELTRQVKEKLAKNGICQRIFGEKVLGLSQGSVSDMLSRPKPWSKLTQKGREPFIYMQLWLNG | -0.365 ± 0.11
QEVDTIELTRQVKEKLAKNGICQQIFGEKVLGLSQGSVSDMLSRPKPWSKLTQKGREPFIRMQLWLNG | -0.088 ± 0.081
QEVDTIELTRQVKEKLAKNGICQKIFGEKVLGLSQGSVSDMLSRPKPWSKLTQKGREPFIRMQLWLNG | -0.07 ± 0.09
QEVDTIELTRQVKEKLAKNGICQPIFGEKVLGLSQGSVSDMLSRPKPWSKLTQKGREPFIRMQLWLNG | -0.559 ± 0.082
QEVDTIELTRQVKEKLAKNGICQRIFGEKVLGLLQGSVSDMLSRPKPWSKLTQKGREPFIRMQLWLNG | -0.113 ± 0.049
QEVDTIELTRQVKEKLAKNGICQRIFGEKVLGLWQGSVSDMLSRPKPWSKLTQKGREPFIRMQLWLNG | -0.059 ± 0.07
QEVDTIELTRQVKEKLAKNGICQRIFGEKVLGLHQGSVSDMLSRPKPWSKLTQKGREPFIRMQLWLNG | -0.139 ± 0.18
QEVDTIELTRQVKEKLAKNGICQRIFGEKVLGLSQGSVSDMLSRPKPWSKLTQKGREPVIRMQLWLNG | -0.761 ± 0.064
QEVDTIELTPQVKEKLAKNGICQRIFGEKVLGLSQGSVSDMLSRPKPWSKLTQKGREPFIRMQLWLNG | -0.157 ± 0.075
QEVDTIELTQQVKEKLAKNGICQRIFGEKVLGLSQGSVSDMLSRPKPWSKLTQKGREPFIRMQLWLNG | -0.135 ± 0.068
QEVDTIELTRQVKEKLAKNGICQRIFGETVLGLSQGSVSDMLSRPKPWSKLTQKGREPFIRMQLWLNG | 0.027 ± 0.068
QSVDTIELTRQVKEKLAKNGICQRIFGEKVLGLSQGSVSDMLSRPKPWSKLTQKGREPFIRMQLWLNG | -0.135 ± 0.027
QHVDTIELTRQVKEKLAKNGICQRIFGEKVLGLSQGSVSDMLSRPKPWSKLTQKGREPFIRMQLWLNG | -0.317 ± 0.032
QEVDTIELTRQVKEKLAKNGICQRIFGEKVLGLSQGSVSDMLSRPKPWSKLTQKGREPFIRMQLPLNG | -1.22 ± 0.15
QEVDTIECTRQVKEKLAKNGICQRIFGEKVLGLSQGSVSDMLSRPKPWSKLTQKGREPFIRMQLWLNG | -0.205 ± 0.094
QEVDTIETTRQVKEKLAKNGICQRIFGEKVLGLSQGSVSDMLSRPKPWSKLTQKGREPFIRMQLWLNG | 0.003 ± 0.062
QEVDTIESTRQVKEKLAKNGICQRIFGEKVLGLSQGSVSDMLSRPKPWSKLTQKGREPFIRMQLWLNG | -0.002 ± 0.051
QEVDTIELTRQVKEKLAKNGIYQRIFGEKVLGLSQGSVSDMLSRPKPWSKLTQKGREPFIRMQLWLNG | -0.28 ± 0.094
QEVDTIELTRQVKEKLAKNGIDQRIFGEKVLGLSQGSVSDMLSRPKPWSKLTQKGREPFIRMQLWLNG | -0.045 ± 0.11
QEVDTIELTRQVKEKLAKNGIAQRIFGEKVLGLSQGSVSDMLSRPKPWSKLTQKGREPFIRMQLWLNG | -0.053 ± 0.056
QEVDCIELTRQVKEKLAKNGICQRIFGEKVLGLSQGSVSDMLSRPKPWSKLTQKGREPFIRMQLWLNG | -0.233 ± 0.088
QEVDYIELTRQVKEKLAKNGICQRIFGEKVLGLSQGSVSDMLSRPKPWSKLTQKGREPFIRMQLWLNG | -0.192 ± 0.12
QEVDTIELTRQVKEKLAKNGICQRIFGEKVLGLSQGSVSDMLSRPKPWSKLTQKGREPFIRMQIWLNG | -0.195 ± 0.12
QEVDTIELTRQVKEKLAKNGICQRIFGEKVLGLSQGSVSDMLSRPKPWSKLTSKGREPFIRMQLWLNG | -0.022 ± 0.059
QEVDTIELTRQVKEKLAKNGICQRIFGEKVLGLSQGSVSDMLSRPKPWSKLTHKGREPFIRMQLWLNG | -0.179 ± 0.11
